Laboratory results as given in patent US5912224.

Target: TGF-β type I receptor of Mv1Lu cells (mink)

TGFβ induced 3TP-Luc luciferase activity in Mv1Lu cells: 25 fold
Substance: myristylated FKBP12
